Test results published in the supplement of paper PMC9112550, “Optimization of the antimicrobial peptide Bac7 by deep mutational scanning” (BMC Biology, 2022).

System: Escherichia coli TOP10
Experiment: shrunken log2 fold change of peptide-encoding DNA abundance (4.5 h post-induction vs induction); higher = less antimicrobial activity (less host growth inhibition)
Conditions: time post-induction: 4.5 h; library: site-saturation at positions 5, 18, 19, 20
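Note: peptides expressed intracellularly from a pBAD plasmid library in pooled LB shake-flask culture, induced with 0.3% L-arabinose, DNA abundance read by NGS, three biological replicates, DESeq2 with apeglm shrinkage.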

Sequence | shrunken log2 fold change
RRIRGRPPRLPRPRPRPISQPRP | 0.135
RRIRGRPPRLPRPRPRPGYMPRP | -0.0736
RRIRFRPPRLPRPRPRPCSIPRP | 0.0647
RRIRTRPPRLPRPRPRPATGPRP | -0.123
RRIRSRPPRLPRPRPRPHCTPRP | -0.298
RRIRGRPPRLPRPRPRPMSSPRP | -0.154
RRIRWRPPRLPRPRPRPSGYPRP | 0.141
RRIRGRPPRLPRPRPRPWKPPRP | 0.0444
RRIRGRPPRLPRPRPRPNAMPRP | 0.988
RRIRSRPPRLPRPRPRPKGVPRP | 0.0137
RRIRGRPPRLPRPRPRPPSCPRP | 0.654
RRIRRRPPRLPRPRPRPLHMPRP | 0.0287
RRIRVRPPRLPRPRPRPAPYPRP | -0.00665
RRIRERPPRLPRPRPRPMVHPRP | -0.281
RRIRRRPPRLPRPRPRPQFEPRP | 0.16
RRIRARPPRLPRPRPRPLITPRP | 0.305
RRIRLRPPRLPRPRPRPYTYPRP | -0.235
RRIRLRPPRLPRPRPRPNPIPRP | -0.237
RRIRLRPPRLPRPRPRPGDNPRP | 0.0735
RRIRVRPPRLPRPRPRPASDPRP | 0.347
RRIRMRPPRLPRPRPRPERDPRP | 2.25
RRIRIRPPRLPRPRPRPVASPRP | -0.14
RRIRKRPPRLPRPRPRPSYGPRP | -0.141
RRIRSRPPRLPRPRPRPNAVPRP | -0.205
RRIRKRPPRLPRPRPRPNIYPRP | -0.275

Sequence | shrunken log2 fold change
RRIRLRPPRLPRPRPRPDWLPRP | 0.318
RRIRKRPPRLPRPRPRPDSHPRP | -0.427
RRIRYRPPRLPRPRPRPTGIPRP | -0.114
RRIRTRPPRLPRPRPRPSVCPRP | -0.203
RRIRIRPPRLPRPRPRPHVKPRP | -0.213
RRIRGRPPRLPRPRPRPNAWPRP | 0.728
RRIRRRPPRLPRPRPRPHRSPRP | -0.00354
RRIRMRPPRLPRPRPRPYISPRP | -0.353
RRIRHRPPRLPRPRPRPVNKPRP | -0.579
RRIRGRPPRLPRPRPRPKKQPRP | 0.0981
RRIRERPPRLPRPRPRPIIPPRP | -0.835
RRIRRRPPRLPRPRPRPYWLPRP | -0.578
RRIRIRPPRLPRPRPRPKWPPRP | 0.0341
RRIRGRPPRLPRPRPRPEMLPRP | 1.71
RRIRSRPPRLPRPRPRPLMPPRP | 0.121
RRIRERPPRLPRPRPRPGKNPRP | -0.212
RRIRYRPPRLPRPRPRPRGMPRP | -0.019
RRIRIRPPRLPRPRPRPGCQPRP | -0.0196
RRIRQRPPRLPRPRPRPRKLPRP | 0.0501
RRIRARPPRLPRPRPRPPQEPRP | 0.854
RRIRTRPPRLPRPRPRPDWGPRP | 0.194
RRIRGRPPRLPRPRPRPFCYPRP | 0.362
RRIRWRPPRLPRPRPRPQRKPRP | 0.46
RRIRSRPPRLPRPRPRPWQLPRP | -0.018
RRIRGRPPRLPRPRPRPYHNPRP | -0.267

Sequence | shrunken log2 fold change
RRIRQRPPRLPRPRPRPGFFPRP | 0.128
RRIRPRPPRLPRPRPRPMPPPRP | 0.194
RRIRGRPPRLPRPRPRPCHMPRP | -0.00127
RRIRSRPPRLPRPRPRPDPAPRP | 0.45
RRIRNRPPRLPRPRPRPHFFPRP | 3.33
RRIRRRPPRLPRPRPRPRMTPRP | 0.295
RRIRIRPPRLPRPRPRPVCRPRP | 1.56
RRIRKRPPRLPRPRPRPIMQPRP | -0.0251
RRIRDRPPRLPRPRPRPRTAPRP | 0.445
RRIRWRPPRLPRPRPRPFFFPRP | 0.253
RRIRGRPPRLPRPRPRPGQSPRP | -0.00151
RRIRGRPPRLPRPRPRPMPEPRP | 0.226
RRIRDRPPRLPRPRPRPSEHPRP | 0.12
RRIRLRPPRLPRPRPRPYLVPRP | -1.06
RRIRTRPPRLPRPRPRPKRHPRP | 0.222
RRIRLRPPRLPRPRPRPEKRPRP | -0.148
RRIRGRPPRLPRPRPRPQLKPRP | 0.404
RRIRIRPPRLPRPRPRPADNPRP | 0.00497
RRIRSRPPRLPRPRPRPMQCPRP | -0.0018
RRIRDRPPRLPRPRPRPTINPRP | 0.135
RRIRTRPPRLPRPRPRPMPMPRP | 0.467
RRIRERPPRLPRPRPRPMYTPRP | -0.469
RRIRKRPPRLPRPRPRPHYYPRP | -0.0852
RRIRTRPPRLPRPRPRPMHDPRP | -0.00302
RRIRFRPPRLPRPRPRPSLCPRP | -0.348

Sequence | shrunken log2 fold change
RRIRVRPPRLPRPRPRPVADPRP | 0.181
RRIRSRPPRLPRPRPRPVYCPRP | -0.138
RRIRNRPPRLPRPRPRPYCHPRP | -0.72
RRIRERPPRLPRPRPRPYPCPRP | -0.00884
RRIRVRPPRLPRPRPRPEYDPRP | -0.0844
RRIRARPPRLPRPRPRPQPRPRP | 0.721
RRIRFRPPRLPRPRPRPDEGPRP | 0.101
RRIRARPPRLPRPRPRPIEVPRP | 0.0287
RRIRRRPPRLPRPRPRPKKIPRP | 0.106
RRIRSRPPRLPRPRPRPSYQPRP | -0.434
RRIRFRPPRLPRPRPRPKNRPRP | -0.284
RRIRDRPPRLPRPRPRPQWQPRP | -0.0558
RRIRGRPPRLPRPRPRPRMAPRP | 1.06
RRIRYRPPRLPRPRPRPKHYPRP | -0.895
RRIRARPPRLPRPRPRPQWLPRP | 0.144
RRIRYRPPRLPRPRPRPPGYPRP | 1.43
RRIRERPPRLPRPRPRPLFSPRP | -0.364
RRIRKRPPRLPRPRPRPVTKPRP | 0.063
RRIRSRPPRLPRPRPRPMHSPRP | -0.055
RRIRFRPPRLPRPRPRPGAMPRP | 0.0505
RRIRARPPRLPRPRPRPQECPRP | -0.0292
RRIRQRPPRLPRPRPRPWQIPRP | -0.0838
RRIRCRPPRLPRPRPRPWRKPRP | 0.119
RRIRSRPPRLPRPRPRPNNYPRP | -0.597
RRIRQRPPRLPRPRPRPFLGPRP | -0.38

Sequence | shrunken log2 fold change
RRIRERPPRLPRPRPRPLTIPRP | -0.101
RRIRMRPPRLPRPRPRPQLDPRP | 0.277
RRIRDRPPRLPRPRPRPAHAPRP | 0.0741
RRIRNRPPRLPRPRPRPSIFPRP | -0.662
RRIRCRPPRLPRPRPRPNSSPRP | -0.366
RRIRCRPPRLPRPRPRPFVSPRP | -0.265
RRIRGRPPRLPRPRPRPPWCPRP | 0.491
RRIRKRPPRLPRPRPRPCISPRP | 0.0183
RRIRLRPPRLPRPRPRPKNYPRP | -0.458
RRIRGRPPRLPRPRPRPYMIPRP | 0.0548
RRIRCRPPRLPRPRPRPGFGPRP | 0.399
RRIRHRPPRLPRPRPRPWTSPRP | -0.00277
RRIRHRPPRLPRPRPRPYCGPRP | 0.113
RRIRLRPPRLPRPRPRPYDIPRP | 0.00601
RRIRFRPPRLPRPRPRPRERPRP | 1.02
RRIRERPPRLPRPRPRPPRWPRP | 0.508
RRIRERPPRLPRPRPRPGEIPRP | 0.0895
RRIRWRPPRLPRPRPRPAPLPRP | 0.512
RRIRLRPPRLPRPRPRPNEDPRP | -0.132
RRIRQRPPRLPRPRPRPFVHPRP | -0.0465
RRIRMRPPRLPRPRPRPCKRPRP | 0.00656
RRIRARPPRLPRPRPRPHWLPRP | 0.339
RRIRFRPPRLPRPRPRPYWYPRP | -0.675
RRIRYRPPRLPRPRPRPTDVPRP | -0.122
RRIRYRPPRLPRPRPRPSWYPRP | -0.772
